In PMC4812828 (Nature structural & molecular biology, 2016):

Experiments:
Experiment in all cases: cryo-EM structure
Cdc45 = biological target: T1, Cdc45 (S. cerevisiae, UniProt Q08032 1-650)
T1 sequence: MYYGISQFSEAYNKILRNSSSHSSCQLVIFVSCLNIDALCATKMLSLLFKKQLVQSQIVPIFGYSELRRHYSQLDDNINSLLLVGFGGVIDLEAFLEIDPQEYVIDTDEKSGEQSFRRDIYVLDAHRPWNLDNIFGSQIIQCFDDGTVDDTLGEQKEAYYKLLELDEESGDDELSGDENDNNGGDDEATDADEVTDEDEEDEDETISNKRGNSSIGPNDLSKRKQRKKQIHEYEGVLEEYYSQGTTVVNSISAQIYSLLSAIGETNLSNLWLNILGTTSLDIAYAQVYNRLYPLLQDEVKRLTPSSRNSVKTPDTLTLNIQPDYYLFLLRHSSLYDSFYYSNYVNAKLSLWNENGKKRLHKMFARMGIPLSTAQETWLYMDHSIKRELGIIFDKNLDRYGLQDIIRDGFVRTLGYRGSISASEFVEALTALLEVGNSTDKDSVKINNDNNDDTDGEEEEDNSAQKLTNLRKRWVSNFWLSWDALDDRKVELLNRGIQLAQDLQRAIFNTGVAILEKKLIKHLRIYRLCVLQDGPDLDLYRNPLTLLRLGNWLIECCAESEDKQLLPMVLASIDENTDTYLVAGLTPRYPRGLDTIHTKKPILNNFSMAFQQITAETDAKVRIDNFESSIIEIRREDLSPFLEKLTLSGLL

Mcm4 = biological target: T2, Mcm4 (S. cerevisiae, UniProt P30665 1-933)
T2 sequence: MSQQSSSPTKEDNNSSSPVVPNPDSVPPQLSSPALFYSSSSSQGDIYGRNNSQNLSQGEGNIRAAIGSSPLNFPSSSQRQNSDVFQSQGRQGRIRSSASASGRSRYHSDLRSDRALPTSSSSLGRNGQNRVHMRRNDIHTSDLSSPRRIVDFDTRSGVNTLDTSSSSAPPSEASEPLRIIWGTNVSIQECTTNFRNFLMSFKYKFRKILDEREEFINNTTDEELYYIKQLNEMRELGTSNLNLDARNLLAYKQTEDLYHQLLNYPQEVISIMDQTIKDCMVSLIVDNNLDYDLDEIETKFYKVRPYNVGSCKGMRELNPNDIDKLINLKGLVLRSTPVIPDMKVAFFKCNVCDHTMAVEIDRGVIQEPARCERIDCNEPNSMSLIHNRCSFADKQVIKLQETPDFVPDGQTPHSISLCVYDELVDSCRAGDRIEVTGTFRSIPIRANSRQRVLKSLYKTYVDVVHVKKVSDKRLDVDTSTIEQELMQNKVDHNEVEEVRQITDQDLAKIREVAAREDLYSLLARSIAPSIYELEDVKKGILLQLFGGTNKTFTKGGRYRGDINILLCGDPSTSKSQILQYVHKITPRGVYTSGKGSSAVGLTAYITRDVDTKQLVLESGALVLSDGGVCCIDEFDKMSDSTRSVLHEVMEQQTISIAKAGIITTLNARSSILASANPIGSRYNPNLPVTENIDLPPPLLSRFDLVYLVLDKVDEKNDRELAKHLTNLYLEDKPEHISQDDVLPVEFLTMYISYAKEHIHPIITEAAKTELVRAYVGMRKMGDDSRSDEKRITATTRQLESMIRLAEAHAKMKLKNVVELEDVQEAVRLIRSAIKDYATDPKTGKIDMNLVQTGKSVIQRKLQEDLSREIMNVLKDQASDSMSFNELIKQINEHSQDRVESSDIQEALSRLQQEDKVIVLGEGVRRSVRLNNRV

Mcm3 = Mcm3 (S. cerevisiae, UniProt P24279 1-971)
Mcm6 = Mcm6 (S. cerevisiae, UniProt P53091 1-1017)
GINS = biological target: T3, GINS (S. cerevisiae, UniProt Q03406;Q12488;P40359;Q12146)
T3 sequence 1: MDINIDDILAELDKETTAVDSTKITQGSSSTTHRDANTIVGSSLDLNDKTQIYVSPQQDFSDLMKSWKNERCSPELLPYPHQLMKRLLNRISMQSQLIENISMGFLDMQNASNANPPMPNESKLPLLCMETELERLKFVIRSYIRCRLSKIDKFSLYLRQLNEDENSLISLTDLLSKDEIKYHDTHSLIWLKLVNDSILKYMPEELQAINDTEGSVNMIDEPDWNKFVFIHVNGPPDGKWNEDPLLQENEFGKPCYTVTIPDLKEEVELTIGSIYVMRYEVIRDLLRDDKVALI
T3 sequence 2: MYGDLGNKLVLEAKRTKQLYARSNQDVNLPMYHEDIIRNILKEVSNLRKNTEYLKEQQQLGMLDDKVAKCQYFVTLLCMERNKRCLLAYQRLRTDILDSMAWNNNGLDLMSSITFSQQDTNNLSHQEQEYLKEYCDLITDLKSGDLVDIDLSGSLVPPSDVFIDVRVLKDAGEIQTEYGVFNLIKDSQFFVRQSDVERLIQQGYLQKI
T3 sequence 3: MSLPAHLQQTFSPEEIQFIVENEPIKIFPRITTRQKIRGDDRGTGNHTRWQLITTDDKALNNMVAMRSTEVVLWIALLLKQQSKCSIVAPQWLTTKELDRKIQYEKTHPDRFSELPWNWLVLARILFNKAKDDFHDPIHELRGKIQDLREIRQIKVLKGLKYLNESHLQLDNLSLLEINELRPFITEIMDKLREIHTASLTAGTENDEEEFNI
T3 sequence 4: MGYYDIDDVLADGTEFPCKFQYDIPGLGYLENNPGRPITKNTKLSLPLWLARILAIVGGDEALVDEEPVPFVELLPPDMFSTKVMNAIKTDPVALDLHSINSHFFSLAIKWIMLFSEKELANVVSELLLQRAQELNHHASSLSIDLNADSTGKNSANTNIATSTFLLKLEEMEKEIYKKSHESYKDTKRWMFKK

Chain of Mcm6 (P53091 whole entry): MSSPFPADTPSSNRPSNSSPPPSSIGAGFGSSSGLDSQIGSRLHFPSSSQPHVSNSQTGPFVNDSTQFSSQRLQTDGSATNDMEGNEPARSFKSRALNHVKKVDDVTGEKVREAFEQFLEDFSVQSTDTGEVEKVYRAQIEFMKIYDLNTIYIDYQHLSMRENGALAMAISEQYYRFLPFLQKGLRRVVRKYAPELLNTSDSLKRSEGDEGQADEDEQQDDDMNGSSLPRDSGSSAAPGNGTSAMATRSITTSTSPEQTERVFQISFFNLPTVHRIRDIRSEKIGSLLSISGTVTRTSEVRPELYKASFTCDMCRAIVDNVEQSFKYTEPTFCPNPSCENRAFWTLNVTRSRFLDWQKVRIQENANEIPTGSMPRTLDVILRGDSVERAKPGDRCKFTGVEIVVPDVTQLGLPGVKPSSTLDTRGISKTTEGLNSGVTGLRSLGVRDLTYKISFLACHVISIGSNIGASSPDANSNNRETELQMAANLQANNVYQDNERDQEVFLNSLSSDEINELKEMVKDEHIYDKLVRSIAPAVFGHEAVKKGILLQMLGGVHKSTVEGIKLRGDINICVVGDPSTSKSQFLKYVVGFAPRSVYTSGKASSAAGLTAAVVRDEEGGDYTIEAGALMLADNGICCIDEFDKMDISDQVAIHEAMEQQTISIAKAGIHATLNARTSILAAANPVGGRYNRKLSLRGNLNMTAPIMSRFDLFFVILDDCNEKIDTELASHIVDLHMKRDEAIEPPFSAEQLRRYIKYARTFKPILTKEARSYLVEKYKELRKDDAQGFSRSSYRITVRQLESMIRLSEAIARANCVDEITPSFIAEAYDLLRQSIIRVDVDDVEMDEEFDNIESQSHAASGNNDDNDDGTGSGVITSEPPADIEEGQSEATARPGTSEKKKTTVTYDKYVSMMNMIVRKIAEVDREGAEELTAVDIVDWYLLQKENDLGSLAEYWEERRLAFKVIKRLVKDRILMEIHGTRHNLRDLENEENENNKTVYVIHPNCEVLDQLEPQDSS
Chain of Mcm3 (P24279 whole entry): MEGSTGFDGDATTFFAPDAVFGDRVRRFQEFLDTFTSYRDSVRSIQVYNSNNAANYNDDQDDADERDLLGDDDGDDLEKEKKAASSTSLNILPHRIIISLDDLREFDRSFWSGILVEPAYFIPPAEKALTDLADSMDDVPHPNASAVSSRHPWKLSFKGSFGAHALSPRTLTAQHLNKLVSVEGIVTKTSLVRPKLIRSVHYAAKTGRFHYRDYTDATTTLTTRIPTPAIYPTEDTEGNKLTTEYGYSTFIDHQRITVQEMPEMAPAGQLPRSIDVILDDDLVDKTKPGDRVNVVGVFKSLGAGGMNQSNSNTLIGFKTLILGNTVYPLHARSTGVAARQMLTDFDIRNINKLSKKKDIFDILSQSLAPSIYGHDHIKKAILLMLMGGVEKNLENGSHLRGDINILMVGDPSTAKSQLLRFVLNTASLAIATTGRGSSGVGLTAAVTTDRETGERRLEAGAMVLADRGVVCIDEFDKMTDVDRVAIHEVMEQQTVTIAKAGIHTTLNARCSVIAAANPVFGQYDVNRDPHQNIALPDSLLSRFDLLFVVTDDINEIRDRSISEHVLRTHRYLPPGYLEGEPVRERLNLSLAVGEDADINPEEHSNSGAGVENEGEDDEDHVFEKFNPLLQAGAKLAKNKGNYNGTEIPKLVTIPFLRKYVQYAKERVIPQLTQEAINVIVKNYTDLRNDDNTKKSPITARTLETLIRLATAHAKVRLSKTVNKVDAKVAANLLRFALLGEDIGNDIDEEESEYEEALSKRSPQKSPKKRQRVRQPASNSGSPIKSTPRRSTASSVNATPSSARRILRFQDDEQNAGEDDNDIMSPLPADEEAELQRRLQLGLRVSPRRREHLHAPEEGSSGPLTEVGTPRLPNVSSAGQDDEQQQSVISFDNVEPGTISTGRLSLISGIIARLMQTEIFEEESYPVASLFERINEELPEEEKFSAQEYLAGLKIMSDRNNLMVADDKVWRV

B1: Psf1 (natural protein)
chain: MYGDLGNKLVLEAKRTKQLYARSNQDVNLPMYHEDIIRNILKEVSNLRKNTEYLKEQQQLGMLDDKVAKCQYFVTLLCMERNKRCLLAYQRLRTDILDSMAWNNNGLDLMSSITFSQQDTNNLSHQEQEYLKEYCDLITDLKSGDLVDIDLSGSLVPPSDVFIDVRVLKDAGEIQTEYGVFNLIKDSQFFVRQSDVERLIQQGYLQKI
Cdc45
  binding result: binds

B2: Mcm7 (natural protein)
chain: MSAALPSIQLPVDYNNLFNEITDFLVTFKQDTLSSDATRNENEDENLDAENIEQHLLEKGPKYMAMLQKVANRELNSVIIDLDDILQYQNEKFLQGTQADDLVSAIQQNANHFTELFCRAIDNNMPLPTKEIDYKDDVLDVILNQRRLRNERMLSDRTNEIRSENLMDTTMDPPSSMNDALREVVEDETELFPPNLTRRYFLYFKPLSQNCARRYRKKAISSKPLSVRQIKGDFLGQLITVRGIITRVSDVKPAVEVIAYTCDQCGYEVFQEVNSRTFTPLSECTSEECSQNQTKGQLFMSTRASKFSAFQECKIQELSQQVPVGHIPRSLNIHVNGTLVRSLSPGDIVDVTGIFLPAPYTGFKALKAGLLTETYLEAQFVRQHKKKFASFSLTSDVEERVMELITSGDVYNRLAKSIAPEIYGNLDVKKALLLLLVGGVDKRVGDGMKIRGDINVCLMGDPGVAKSQLLKAICKISPRGVYTTGKGSSGVGLTAAVMKDPVTDEMILEGGALVLADNGICCIDEFDKMDESDRTAIHEVMEQQTISISKAGINTTLNARTSILAAANPLYGRYNPRLSPLDNINLPAALLSRFDILFLMLDIPSRDDDEKLAEHVTYVHMHNKQPDLDFTPVEPSKMREYIAYAKTKRPVMSEAVNDYVVQAYIRLRQDSKREMDSKFSFGQATPRTLLGIIRLSQALAKLRLADMVDIDDVEEALRLVRVSKESLYQETNKSKEDESPTTKIFTIIKKMLQETGKNTLSYENIVKTVRLRGFTMLQLSNCIQEYSYLNVWHLINEGNTLKFVDDGTMDTDQEDSLVSTPKLAPQTTASANVSAQDSDIDLQDA
Mcm4
  binding result: binds
Mcm3
  binding result: binds

B3: Psf2 (natural protein)
chain: MSLPAHLQQTFSPEEIQFIVENEPIKIFPRITTRQKIRGDDRGTGNHTRWQLITTDDKALNNMVAMRSTEVVLWIALLLKQQSKCSIVAPQWLTTKELDRKIQYEKTHPDRFSELPWNWLVLARILFNKAKDDFHDPIHELRGKIQDLREIRQIKVLKGLKYLNESHLQLDNLSLLEINELRPFITEIMDKLREIHTASLTAGTENDEEEFNI
Cdc45
  binding result: binds

B4: Mcm5 (natural protein)
chain: MSFDRPEIYSAPVLQGESPNDDDNTEIIKSFKNFILEFRLDSQFIYRDQLRNNILVKNYSLTVNMEHLIGYNEDIYKKLSDEPSDIIPLFETAITQVAKRISILSRAQSANNNDKDPENTSMDTDSLLLNSLPTFQLILNSNANQIPLRDLDSEHVSKIVRLSGIIISTSVLSSRATYLSIMCRNCRHTTSITINNFNSITGNTVSLPRSCLSTIESESSMANESNIGDESTKKNCGPDPYIIIHESSKFIDQQFLKLQEIPELVPVGEMPRNLTMTCDRYLTNKVIPGTRVTIVGIYSIYNSKNGAGSGRSGGGNGGSGVAIRTPYIKILGIQSDVETSSIWNSVTMFTEEEEEEFLQLSRNPKLYEILTNSIAPSIFGNEDIKKAIVCLLMGGSKKILPDGMRLRGDINVLLLGDPGTAKSQLLKFVEKVSPIAVYTSGKGSSAAGLTASVQRDPMTREFYLEGGAMVLADGGVVCIDEFDKMRDEDRVAIHEAMEQQTISIAKAGITTVLNSRTSVLAAANPIYGRYDDLKSPGDNIDFQTTILSRFDMIFIVKDDHNEERDISIANHVINIHTGNANAMQNQQEENGSEISIEKMKRYITYCRLKCAPRLSPQAAEKLSSNFVTIRKQLLINELESTERSSIPITIRQLEAIIRITESLAKLELSPIAQERHVDEAIRLFQASTMDAASQDPIGGLNQASGTSLSEIRRFEQELKRRLPIGWSTSYQTLRREFVDTHRFSQLALDKALYALEKHETIQLRHQGQNIYRSGV
Mcm6
  binding result: binds
GINS
  binding result: binds
